± gives the uncertainty stated by the source.
B1: Ankyrin-3, residues 4094 to 4171; numbered along this chain, Q12955 (parent)
chain: MAIVADHLGLSWTELARELNFSVDEINQIRVENPNSLISQSFMLLKKWVTRDGKNATTDALTSVLTKINRIDIVTLLE

Variants of: B1
Assay: abundance fitness (aPCA) (normalised: wild type 0, dead -1); higher = more abundant; growth selection in yeast, the domain comes from the species named
Conditions: Homo sapiens

Row | Variant | abundance fitness
1 | W48G | -0.811 ± 0.25
2 | W48P | -0.923 ± 0.28
3 | W48T | -0.876 ± 0.26
4 | P34G | -0.299 ± 0.066
5 | P34D | -0.268 ± 0.1
6 | P34A | -0.245 ± 0.056
7 | P34H | -0.268 ± 0.15
8 | P34Q | -0.067 ± 0.078
9 | R17A | -0.033 ± 0.068
10 | R17V | -0.161 ± 0.059
11 | R17G | -0.163 ± 0.058
12 | R17D | -0.203 ± 0.13
13 | K67T | -0.228 ± 0.18
14 | K67V | -0.276 ± 0.051
15 | K67A | -0.135 ± 0.078
16 | K67S | -0.285 ± 0.072
17 | K67G | -0.525 ± 0.1
18 | K67N | -0.48 ± 0.25
19 | S41T | -0.211 ± 0.097
20 | S39A | 0.05 ± 0.055
21 | S39L | -0.184 ± 0.072
22 | S39Q | 0.087 ± 0.086
23 | S39G | -0.048 ± 0.045
24 | S39M | -0.071 ± 0.094

Row | Variant | abundance fitness
25 | S39V | -0.209 ± 0.057
26 | M1A | -0.322 ± 0.1
27 | M1C | -0.198 ± 0.23
28 | M1T | -0.801 ± 0.4
29 | M1I | -0.321 ± 0.37
30 | D24H | -0.068 ± 0.087
31 | D24M | -0.424 ± 0.096
32 | D24T | -0.152 ± 0.12
33 | D24F | -0.621 ± 0.21
34 | D24C | -0.342 ± 0.098
35 | D24Q | 0.063 ± 0.069
36 | D24P | -0.352 ± 0.086
37 | R51W | -0.503 ± 0.31
38 | R51V | -0.789 ± 0.12
39 | R51D | -0.637 ± 0.46
40 | V64G | -0.05 ± 0.08
41 | V64K | -0.333 ± 0.47
42 | V64E | 0.001 ± 0.15
43 | V64P | 0.037 ± 0.085
44 | V64N | -0.236 ± 0.35
45 | V64Y | -0.166 ± 0.15
46 | A56C | -0.271 ± 0.11
47 | A56R | -0.506 ± 0.059
48 | A56I | -0.298 ± 0.16

Row | Variant | abundance fitness
49 | A56V | -0.037 ± 0.049
50 | A56W | -0.458 ± 0.072
51 | A56N | -0.53 ± 0.29
52 | V74R | -0.827 ± 0.12
53 | V74K | -0.255 ± 0.18
54 | V74D | -0.944 ± 0.38
55 | V74M | -0.749 ± 0.41
56 | F21D | -0.949 ± 0.34
57 | F21E | -0.997 ± 0.2
58 | F21C | -1 ± 0.29
59 | L61A | -0.732 ± 0.11
60 | I38E | 0.15 ± 0.075
61 | I38N | 0.234 ± 0.25
62 | I38L | -0.183 ± 0.058
63 | I38W | -0.039 ± 0.071
64 | I38H | -0.167 ± 0.21
65 | I38G | -0.006 ± 0.061
66 | I38A | -0.02 ± 0.073
67 | I38P | -0.041 ± 0.066
68 | I38M | 0.009 ± 0.088
69 | N35P | -0.665 ± 0.12
70 | N35D | -0.053 ± 0.091
71 | N35G | -0.065 ± 0.049
72 | N35C | -0.212 ± 0.11

Row | Variant | abundance fitness
73 | E78L | -0.326 ± 0.088
74 | E78I | -0.219 ± 0.041
75 | E78V | -0.206 ± 0.075
76 | E78Y | -0.159 ± 0.14
77 | E78S | -0.089 ± 0.065
78 | E78F | -0.13 ± 0.1
79 | E78Q | -0.397 ± 0.2
80 | E78T | -0.063 ± 0.032
81 | E78K | -0.025 ± 0.085
82 | S36F | -0.717 ± 0.27
83 | S36M | -0.778 ± 0.2
84 | S36L | -0.933 ± 0.14
85 | S36Q | -0.336 ± 0.11
86 | T75H | -0.219 ± 0.15
87 | T75W | -0.189 ± 0.072
88 | T75L | 0.006 ± 0.056
89 | N20F | -0.196 ± 0.12
90 | N20C | -0.348 ± 0.16
91 | N20E | -0.101 ± 0.073
92 | N20D | 0.093 ± 0.14
93 | V31W | -0.165 ± 0.072
94 | V31S | -0.006 ± 0.062
95 | V31T | 0.026 ± 0.08
96 | V31A | -0.07 ± 0.055

Row | Variant | abundance fitness
97 | S63C | -0.11 ± 0.087
98 | S63F | -0.153 ± 0.15
99 | S63K | 0.002 ± 0.097
100 | S63I | -0.287 ± 0.27
101 | S63G | -0.031 ± 0.053
102 | S63E | -0.075 ± 0.11
103 | S63V | -0.061 ± 0.053
104 | I26Q | -0.594 ± 0.12
105 | I26L | -0.96 ± 0.15
106 | I26W | -0.871 ± 0.16
107 | I26R | -0.522 ± 0.11
108 | D52E | -0.025 ± 0.074
109 | D52S | -0.589 ± 0.085
110 | D52Y | -0.717 ± 0.29
111 | V23I | -0.073 ± 0.24
112 | V23S | -0.061 ± 0.048
113 | V23G | -0.004 ± 0.068
114 | V23R | -0.027 ± 0.044
115 | E14A | -0.082 ± 0.068
116 | E14V | -0.02 ± 0.057
117 | E14C | -0.23 ± 0.14
118 | E14H | -0.156 ± 0.12
119 | T62M | 0.06 ± 0.15
120 | T62H | -0.297 ± 0.33

Row | Variant | abundance fitness
121 | T62L | -0.045 ± 0.04
122 | T62C | -0.292 ± 0.13
123 | M43S | 0.005 ± 0.054
124 | M43E | 0.056 ± 0.081
125 | M43K | -0.185 ± 0.16
126 | M43A | 0.047 ± 0.065
127 | M43C | 0.1 ± 0.11
128 | M43G | 0.02 ± 0.048
129 | L37N | -0.359 ± 0.16
130 | L37R | -0.526 ± 0.084
131 | L37E | 0.026 ± 0.099
132 | L37H | -0.107 ± 0.072
133 | L37Y | -0.141 ± 0.16
134 | I29G | -0.927 ± 0.12
135 | I29C | -0.741 ± 0.18
136 | I29V | -0.302 ± 0.057
137 | R30T | -0.158 ± 0.085
138 | A2F | -0.035 ± 0.11
139 | A2C | -0.077 ± 0.1
140 | A2Q | 0.058 ± 0.072
141 | A2E | 0.224 ± 0.084
142 | A5C | -0.359 ± 0.12
143 | A5R | -0.498 ± 0.076
144 | A5W | -0.765 ± 0.13

Row | Variant | abundance fitness
145 | A5P | -0.899 ± 0.26
146 | L76V | 0.026 ± 0.058
147 | L76T | -0.197 ± 0.083
148 | L76A | 0.08 ± 0.077
149 | N69Y | -0.699 ± 0.12
150 | N69H | -0.308 ± 0.18
151 | N69S | -0.29 ± 0.057
152 | L8W | -0.552 ± 0.15
153 | L8K | -0.696 ± 0.36
154 | L8E | -0.984 ± 0.22
155 | K54H | 0.037 ± 0.14
156 | K54C | -0.088 ± 0.076
157 | K54A | -0.019 ± 0.059
158 | K54V | 0.038 ± 0.055
159 | K54F | -0.156 ± 0.088
160 | K54I | 0.065 ± 0.12
161 | K54Q | -0.054 ± 0.085
162 | K54R | -0.064 ± 0.042
163 | T50E | -0.008 ± 0.075
164 | T50F | -0.247 ± 0.17
165 | T50I | -0.18 ± 0.1
166 | T50W | -0.065 ± 0.06
167 | T50S | -0.016 ± 0.054
